The text below walks through data of patent publication US20240360227A1.

The target of test [1] is Recombinant human his-tagged IGF R extracellular domain protein (human) (UniProt P08069). As to the kind of experiment: SPR, Ab captured via anti-huIgG Fc, pH 7.4.
Test [2] has the same target. The test is described as follows: SPR, Ab captured via anti-huIgG Fc, dissociation at pH 6.

B1: VRDN-02027 (antibody, V domains shown)
VH: QVQLQESGPGLVKPSETLSLTCTVSGYSITGGYLWNWIRQPPGKGLEWIGYISYDGTNNYKPSLKDRVTISRDTSKNQFSLKLSSVTAADTAVYYCARYGRVFFHYWGQGTLVTVSS
VL: DIVMTQSPLSLPVTPGEPASISCRSSQSIVHSNGNTYLQWYLQKPGQSPQLLIYKVSNRLYGVPDRFSGSGSGTDFTLKISRVEAEDVGVYYCFQGSHVPWTFGQGTKVEIK
Consider B1, for which, in test [1], the Kd was 6.73 nM, the koff turned out to be 0.000957 s⁻¹ and the kon was 142000 M⁻¹ s⁻¹. Besides, in test [2], the dissociation constant (Kd) is 2.85 nM, the koff came to 0.000121 s⁻¹ and the kon is 42600 M⁻¹ s⁻¹.

B2: VRDN-02031 (antibody, V domains shown)
VH: QVQLQESGPGLVKPSETLSLTCTVSGYSITGGYLWNWIRQPPGKGLEWIGYISYDGTNNYKPSLKDRVTISRDTSKNQFSLKLSSVTAADTAVYYCARYGRVFFDYWGQGTLVTVSS
VL: DIVMTQSPLSLPVTPGEPASISCRSHQSIVHSNGNTYLQWYLQKPGQSPQLLIYKVSNRLYGVPDRFSGSGSGTDFTLKISRVEAEDVGVYYCFQGSHVPWTFGQGTKVEIK
In the case of B2, in test [1], the Kd is 0.468 nM, the koff worked out at 4.56e-05 s⁻¹ and the kon came out at 97300 M⁻¹ s⁻¹. Further, in test [2], the Kd was 1.22 nM, the koff amounted to 0.000115 s⁻¹ and the association rate constant (kon) came out at 94400 M⁻¹ s⁻¹.

B3: VRDN-02029 (antibody, V domains shown)
VH: QVQLQESGPGLVKPSETLSLTCTVSGYSITGGYLWNWIRQPPGKGLEWIGYISYDGTNNYKPSLKDRVTISRDTSKNQFSLKLSSVTAADTAVYYCARYGRVFFDYWGQGTLVTVSS
VL: DIVMTQSPLSLPVTPGEPASISCHSSQSIVHSNGNTYLQWYLQKPGQSPQLLIYKVSNRLYGVPDRFSGSGSGTDFTLKISRVEAEDVGVYYCFQGSHVPWTFGQGTKVEIK
For the molecule B3, in test [1], the Kd amounted to 0.599 nM, the koff came to 5.53e-05 s⁻¹ and the kon turned out to be 92400 M⁻¹ s⁻¹. Also, in test [2], the Kd amounted to 1.1 nM, the koff is 9.38e-05 s⁻¹ and the kon amounted to 85600 M⁻¹ s⁻¹.

B4: VRDN-02028 (antibody, V domains shown)
VH: QVQLQESGPGLVKPSETLSLTCTVSGYSITGGYLWNWIRQPPGKGLEWIGYISYDGTNNYKPSLKDRVTISRDTSKNQFSLKLSSVTAADTAVYYCARYGRVFFDHWGQGTLVTVSS
VL: DIVMTQSPLSLPVTPGEPASISCRSSQSIVHSNGNTYLQWYLQKPGQSPQLLIYKVSNRLYGVPDRFSGSGSGTDFTLKISRVEAEDVGVYYCFQGSHVPWTFGQGTKVEIK
As to B4, in test [1], the Kd was 0.525 nM, the koff was 5.4e-05 s⁻¹ and the kon came to 103000 M⁻¹ s⁻¹. In test [2], the Kd came out at 1.11 nM, the koff stood at 0.000107 s⁻¹ and the kon amounted to 97000 M⁻¹ s⁻¹.

B5: VRDN-02003 (antibody, V domains shown)
VH: QVQLQESGPGLVKPSETLSLTCTVSGYHITGGYLWNWIRQPPGKGLEWIGYISYDGTNNYKPSLKDRVTISRDTSKNQFSLKLSSVTAADTAVYYCARYGRVFFDYWGQGTLVTVSS
VL: DIVMTQSPLSLPVTPGEPASISCRSSQSIVHSNGNTYLQWYLQKPGQSPQLLIYKVSNRLYGVPDRFSGSGSGTDFTLKISRVEAEDVGVYYCFQGSHVPWTFGQGTKVEIK
On to B5, for which, in test [1], the Kd was 0.423 nM, the koff was found to be 4.72e-05 s⁻¹ and the kon was 112000 M⁻¹ s⁻¹. Moreover, in test [2], the Kd turned out to be 1 nM, the koff is 9.44e-05 s⁻¹ and the kon came out at 94300 M⁻¹ s⁻¹.

B6: VRDN-02030 (antibody, V domains shown)
VH: QVQLQESGPGLVKPSETLSLTCTVSGYSITGGYLWNWIRQPPGKGLEWIGYISYDGTNNYKPSLKDRVTISRDTSKNQFSLKLSSVTAADTAVYYCARYGRVFFDYWGQGTLVTVSS
VL: DIVMTQSPLSLPVTPGEPASISCRHSQSIVHSNGNTYLQWYLQKPGQSPQLLIYKVSNRLYGVPDRFSGSGSGTDFTLKISRVEAEDVGVYYCFQGSHVPWTFGQGTKVEIK
For the molecule B6, in test [1], the Kd was determined as 0.646 nM, the koff came out at 5.48e-05 s⁻¹ and the kon worked out at 84800 M⁻¹ s⁻¹. For the same molecule, in test [2], the Kd came out at 1.09 nM, the koff is 9.65e-05 s⁻¹ and the kon came out at 88900 M⁻¹ s⁻¹.

The term Kd denotes the equilibrium constant for the complex coming apart. In general, koff refers to the first-order rate constant of dissociation. In general, kon refers to the second-order rate constant of association.
